# B1: TPR t1 (parent)
# chain: GACCAAUCUGCCCUCAGAGCUCGAGAACAUCUUCGGAUGCAGAGGAGGCAGGCUUCGGUGGCGCGAUAGCGCCAACGUCCUCAACCUCCAAUGCAUCCCACCACAUGAUGAUGCCUGAAGAGCCUUGGUUUUUUG
# Variants of: B1
# Experiment: polymerase ribozyme fitness, log enrichment relative to wild type (log ratio); higher = more active; in vitro selection for triplet polymerase activity
# In short: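 To select mutant libraries of each subunit of a heterodimeric triplet polymerase ribozyme, built by PCR and transcribed, each was annealed with a biotinylated primer, partner subunit and triplets, then incubated frozen at −7 °C. Extended constructs were gel-excised, captured on streptavidin beads and amplified by RT-PCR, in one round carried out in triplicate. Illumina sequencing of input and output libraries kept genotypes with ≥10 input reads and ≥1 read per output. Fitness is the base-2 logarithm of genotype enrichment relative to wild-type enrichment, from inverse-variance-weighted replicate averages.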
row,Variant,polymerase ribozyme fitness (log ratio)
1,A16U G69A C82G C97A C114U U133G,-5.51
2,A18U C62U C89A U133A,-2.36
3,A18G C88U G113U,-2.52
4,A18G A66U G113A U126C U133A,-4.19
5,A18U G58A U112A G122U,-2.54
6,A18C G42A G44U C53G G93A,-4.64
7,A18U C62G A121U,-2.71
8,G17A G48A U87G G117A,-2.48
9,A18U C98U A111C,-4.18
10,A18U G36U G48U G69U G120U G122U,-1.69
11,A18U A29U U54G C89G C114G,-3.41
12,A18U G52U G61A,-2.78
13,A18U G60A C72U G122A U130G,-3.74
14,A16U C49A G63C,-1.43
15,A18G G69A C88G G113C,-5.21
16,A16G A41C A84U C99A G117C U133C,-4.53
17,A18C A27G A43U G44U G61A,-4.83
18,A18C G39C A41U G60C C123U,-4.26
19,A18G G127U,-4.06
20,A18U C104A,-4.32
21,G17U C31U C64G G93U C123A U130A,-5.64

row,Variant,polymerase ribozyme fitness (log ratio)
1,A16C U87A C123G G128C,-1.81
2,G17C A75G C101U,-5.29
3,A18G G63A C115A C123U,-6.7
4,A18U G42A,-2.11
5,G17U C20A C49U,-5.73
6,A18U G42U A74G,-1.91
7,A16U C20A C56A,-5.28
8,A16U U21C G60A G71U U112G G113A,-5.57
9,A18G G58A C79G A118G,-7.2
10,A18C A91U,-1.86
11,A18U G117U,-4.36
12,A16U G42C A43G G45U C73A U129A,-3.44
13,A18G A43U C101G G120A,-4.32
14,A18C U32C A37U A50U G60A A83U,-4.99
15,A18C G63A U78G,-5.52
16,A18C G135U,-3.23
17,A18U A43U C101G,-3.57
18,A16U G63U,-4.13
19,A16U G69U C98U A121C U130A,-0.111
20,A18C U32C A37U A50U G60A G113A,-5.4
21,A18C C72U U92G A121G,-0.934

row,Variant,polymerase ribozyme fitness (log ratio)
1,A16U C82U,-2.17
2,A18C G52U A74U A95U A121G,-3.61
3,A16C C40G C56A,-3.75
4,A16G C22U G45U C64G C86G A121C,-7.27
5,A16G U55A C102A A121U,-0.698
6,A16C C56U G69U G120A,-3.38
7,G17A C124U,-1.79
8,G17A C124G,0.0623
9,G17U A24G U32C G61C G117C,-6.76
10,A16G C49G C56G,-4.65
11,A16C G44U U125G,-4.42
12,A16U G60C G117C U125A,-4.08
13,G17C U21A G39A U112C C115A,-1.1
14,A18U G44A U54A U59A C86U U106A,-4.83
15,A16G G52A C56A G69U,-1.69
16,G17U A43G G57U,-4.19
17,A18G C80U,-3.36
18,A16G A68G,-4.75
19,A16U G47A C56G C86U C101A A121C,-0.796
20,A18U C123G U129A,-1.83
21,A18G G117C,-3.04

row,Variant,polymerase ribozyme fitness (log ratio)
1,A18C C20U,-1.33
2,A18U A41U C114U C115G U116G A121G G122U,-3.05
3,A18U A24C A27U C40U G63C C89G U116A A121G,-5.65
4,G17U G48U C70U U78C U87G U112A,-4.19
5,G17A U55A G77U C115U U125A,-0.205
6,A18C G45U,-3.69
7,G17A C49G A83U U87C G117A,-3.65
8,A16G G93A G120A G122U U130G,-3.58
9,A18U C73U C101U G120A,-2.78
10,G17C C34U G42U C70A C123A,-6.07
11,A18C G52C U96C,-3.84
12,A18C C49A U78G C114U,-4.02
13,G17C U106G C115G,0.318
14,A16U C85U,-2.77
15,A16U G61A U81A C88G,-3.75
16,G17A C53U U54A C64U U92G,-4.58
17,A18C A50C G60A A84G U92A,-6.2
18,A16U C79U C86A G120U G128A,-4.89
19,G17A A50U G51U C114G,-6.63
20,A18U G44U G110A,-5.32
21,A18C G58U G69C C89U U106A G110U,-4.7
